These results are taken from article PMC10495264 (Nature Cell Biology, 2023).

The test system of assay [1] is yeast cells. The assay can be described thus: Drop spot growth assays on rapamycin and/or cerulenin plates. The class given is cell-based, Saccharomyces cerevisiae. As to conditions: low / sublethal doses combined.
Method: Yeast cells (Saccharomyces cerevisiae) were cultured in liquid SC medium (1.7 g l^−1 yeast nitrogen base (cat. no. 1545, CONDA), 5 g l^−1 ammonium sulfate (cat. no. 4808211, MP Biomedicals), 20 g l^−1 glucose (cat. no. 1422, AppliChem), 2 g l^−1 amino acid dropout –His (D9520, US Biological) and 35 mg l^−1 histidine (A1341, AppliChem) at 30 °C to the exponential growth phase, unless otherwise stated in the figure legends. All yeast strains used in this study are listed in Supplementary Table 1.
Assay [2] has as its target TORC1 containing the N-terminally GFP-tagged Tor1 subunit (Saccharomyces cerevisiae) (UniProt P35169). The experiment in a line: MST; GFP–Tor1-containing TORC1 (7.5 nM) as fluorescent target, 16 twofold dilutions of Acc1 (highest 80 nM) or Fas1 (highest 20 nM); 50 mM HEPES NaOH pH 7.5, 150 mM NaCl; 30 °C; Monolith NT.115.
The target in assay [3] is T1, TORC1 (Saccharomyces cerevisiae, UniProt P35169).
T1 construct: made in house; host or cells: S. cerevisiae strain NIC005 ([RL170-2c] LEU2:GFP-TOR1)
The assay can be described thus: MST binding affinity assays with fluorescent TORC1 (GFP–Tor1). The settings on record: for Kd: purified yeast proteins, GFP–Tor1-containing TORC1 7.5 nM, 30 °C, mean ± s.d., n = 3, read-out: Kd (binding to TORC1, MST); for Fraction bound transformed (MST, TORC1 target): Fig. 6d,e. The procedure: The MST experiments were performed using a Monolith NT.115 (Nanotemper Technologies). Purification of TORC1 containing the N-terminally GFP-tagged Tor1 subunit was carried out as described previously. For the protein–protein interaction experiments, GFP–Tor1-containing TORC1 (7.5 nM) was mixed with a series of twofold dilutions (a total of 16 samples) of Acc1 (highest concentration, 80 nM) or Fas1 (highest concentration, 20 nM) purified from yeast through TAP-tag immuno-enrichment with rabbit IgG-coated magnetic beads and subsequent TEV cleavage in elution buffer (50 mM HEPES NaOH pH 7.5 and 150 mM NaCl) for 1 h at 18 °C. The samples were loaded into Monolith NT.115 capillaries and MST measurements were performed using 80% laser power and medium MST power setting at 30 °C. For the small molecule–protein interaction experiments, GFP–Tor1-containing TORC1 (7.5 nM) was mixed with a series of twofold dilutions (a total of 16 samples) of Mal-CoA (M4263, Sigma-Aldrich; highest concentration, 5 mM) dissolved in 50 mM HEPES pH 7.5. The samples were loaded into Monolith NT.115 capillaries and MST measurements were performed using 80% laser power and medium MST power setting at 30 °C. The experiments were performed in triplicate and data were fitted using the Kd model of the MO.Affinity Analysis software (Nanotemper Technologies). The signal-to-noise ratio represents the response amplitude divided by the noise of the measurement. The Kd value was obtained by plotting the bound fraction against the log-transformed ligand concentration.

The target in assay [4] is T1, TORC1. The assay is described as above.
Assay [5] relates to intracellular TAG and palmitate (C16:0) levels. The experiment in a line: TAG and palmitate (C16:0) measurements by LC-HRMS. The class given is cell-based, human. The settings on record: ED Fig. 5t; compared with BSA. The procedure:
The intracellular levels of TAGs and palmitate (C16:0) were determined using liquid chromatography-high resolution mass spectrometry-based analysis. Briefly, cells were seeded in 10-cm dishes and treated as described in the ‘Mammalian cell culture treatments’ section. The cells were scraped in medium and collected by centrifugation (400g, 3 min). The pellets were then washed three times with 1 ml ice-cold PBS, snap frozen in liquid nitrogen and kept at −80 °C until further processing.
The samples were vortexed for 10 s immediately after the addition of the extraction buffer and then incubated for 30 min on an orbital shaker at 4 °C. The proteins were pelleted by centrifugation (10 min, 21,000g, 4 °C) and the supernatants were transferred to a clean 2-ml tube. […]
The lipid pellets were resuspended in 200 µl ultra-performance liquid chromatography (UPLC)-grade acetonitrile:isopropanol 70:30 (vol/vol). […] In both cases, the analysed mass range was in the range of m/z 150–1,500. […]
All samples were analysed in a randomized run order. […] For measurements of intracellular TAG abundance (Extended Data Fig. 5r), the sum of all values corresponding to the peak areas for the different individual TAGs was calculated for each sample.

The mark [6] stands for this setting: titrated protein 4.88281e-9 M, Fig. 6d,e.
The mark [7] stands for this setting: titrated protein 3.90625e-8 M, Fig. 6d,e.
[8] abbreviates: titrated protein 1.5625e-7 M, Fig. 6d,e.

T1 sequence (P35169 whole entry): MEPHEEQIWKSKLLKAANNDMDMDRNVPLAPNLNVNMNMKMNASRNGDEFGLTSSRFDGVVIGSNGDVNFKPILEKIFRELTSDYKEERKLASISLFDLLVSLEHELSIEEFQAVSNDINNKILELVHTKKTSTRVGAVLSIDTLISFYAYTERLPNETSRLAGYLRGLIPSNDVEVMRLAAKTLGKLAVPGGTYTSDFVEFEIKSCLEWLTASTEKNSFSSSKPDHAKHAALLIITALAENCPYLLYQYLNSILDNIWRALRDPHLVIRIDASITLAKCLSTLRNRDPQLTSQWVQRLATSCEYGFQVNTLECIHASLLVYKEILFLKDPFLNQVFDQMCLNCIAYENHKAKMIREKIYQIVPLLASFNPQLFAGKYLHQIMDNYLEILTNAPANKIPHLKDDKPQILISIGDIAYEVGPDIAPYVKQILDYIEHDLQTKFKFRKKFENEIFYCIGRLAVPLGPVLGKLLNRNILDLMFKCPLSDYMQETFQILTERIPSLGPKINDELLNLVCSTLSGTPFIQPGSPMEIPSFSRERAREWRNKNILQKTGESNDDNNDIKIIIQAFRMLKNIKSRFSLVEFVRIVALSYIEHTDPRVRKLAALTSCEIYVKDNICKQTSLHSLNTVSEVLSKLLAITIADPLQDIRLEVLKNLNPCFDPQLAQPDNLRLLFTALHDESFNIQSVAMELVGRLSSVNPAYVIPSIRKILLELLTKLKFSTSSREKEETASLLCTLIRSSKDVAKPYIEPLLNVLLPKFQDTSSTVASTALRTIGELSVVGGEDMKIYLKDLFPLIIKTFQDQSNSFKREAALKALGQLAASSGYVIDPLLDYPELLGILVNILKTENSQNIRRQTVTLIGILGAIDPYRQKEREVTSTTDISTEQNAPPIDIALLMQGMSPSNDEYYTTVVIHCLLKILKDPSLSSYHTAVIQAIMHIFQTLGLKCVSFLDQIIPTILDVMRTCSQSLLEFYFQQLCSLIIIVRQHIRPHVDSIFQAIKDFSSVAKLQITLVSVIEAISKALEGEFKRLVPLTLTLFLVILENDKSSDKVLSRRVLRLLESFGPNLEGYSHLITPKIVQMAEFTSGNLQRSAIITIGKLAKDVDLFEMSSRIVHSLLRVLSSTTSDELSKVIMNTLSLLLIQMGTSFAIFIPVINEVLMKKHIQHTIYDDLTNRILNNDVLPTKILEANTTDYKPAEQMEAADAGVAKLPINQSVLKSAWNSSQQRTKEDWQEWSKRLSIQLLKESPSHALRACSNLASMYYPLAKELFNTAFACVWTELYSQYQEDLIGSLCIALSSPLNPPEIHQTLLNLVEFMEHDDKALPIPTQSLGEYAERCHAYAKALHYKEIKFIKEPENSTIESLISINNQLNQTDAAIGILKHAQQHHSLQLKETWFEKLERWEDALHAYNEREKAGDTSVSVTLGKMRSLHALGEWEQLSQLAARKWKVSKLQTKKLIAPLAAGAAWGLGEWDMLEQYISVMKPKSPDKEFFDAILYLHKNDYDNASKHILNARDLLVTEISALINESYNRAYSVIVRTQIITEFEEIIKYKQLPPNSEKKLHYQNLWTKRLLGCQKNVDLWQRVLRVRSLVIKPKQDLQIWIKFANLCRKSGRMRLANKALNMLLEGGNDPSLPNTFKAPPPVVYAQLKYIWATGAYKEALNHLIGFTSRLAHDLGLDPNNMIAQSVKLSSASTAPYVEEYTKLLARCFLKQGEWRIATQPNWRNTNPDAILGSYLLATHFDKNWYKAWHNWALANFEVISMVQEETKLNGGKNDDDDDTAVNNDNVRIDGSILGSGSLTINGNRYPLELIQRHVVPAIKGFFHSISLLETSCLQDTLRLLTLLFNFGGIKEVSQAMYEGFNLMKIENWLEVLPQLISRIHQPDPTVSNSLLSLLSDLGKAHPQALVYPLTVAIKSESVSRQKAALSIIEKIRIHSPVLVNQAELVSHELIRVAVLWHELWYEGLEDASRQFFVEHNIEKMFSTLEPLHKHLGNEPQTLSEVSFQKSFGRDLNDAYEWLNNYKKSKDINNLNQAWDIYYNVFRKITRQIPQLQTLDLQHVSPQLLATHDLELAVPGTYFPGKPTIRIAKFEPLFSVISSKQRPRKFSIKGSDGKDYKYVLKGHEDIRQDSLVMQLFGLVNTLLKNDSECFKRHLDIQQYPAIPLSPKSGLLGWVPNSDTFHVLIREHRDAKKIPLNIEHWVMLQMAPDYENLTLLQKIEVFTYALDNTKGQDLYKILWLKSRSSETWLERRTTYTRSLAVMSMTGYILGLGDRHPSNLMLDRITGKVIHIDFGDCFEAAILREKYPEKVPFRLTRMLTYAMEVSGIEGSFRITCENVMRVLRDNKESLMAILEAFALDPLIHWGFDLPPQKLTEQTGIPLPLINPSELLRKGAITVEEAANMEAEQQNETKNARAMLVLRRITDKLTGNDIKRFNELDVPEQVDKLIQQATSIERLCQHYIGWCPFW
T1 sequence (Q08921 whole entry partner): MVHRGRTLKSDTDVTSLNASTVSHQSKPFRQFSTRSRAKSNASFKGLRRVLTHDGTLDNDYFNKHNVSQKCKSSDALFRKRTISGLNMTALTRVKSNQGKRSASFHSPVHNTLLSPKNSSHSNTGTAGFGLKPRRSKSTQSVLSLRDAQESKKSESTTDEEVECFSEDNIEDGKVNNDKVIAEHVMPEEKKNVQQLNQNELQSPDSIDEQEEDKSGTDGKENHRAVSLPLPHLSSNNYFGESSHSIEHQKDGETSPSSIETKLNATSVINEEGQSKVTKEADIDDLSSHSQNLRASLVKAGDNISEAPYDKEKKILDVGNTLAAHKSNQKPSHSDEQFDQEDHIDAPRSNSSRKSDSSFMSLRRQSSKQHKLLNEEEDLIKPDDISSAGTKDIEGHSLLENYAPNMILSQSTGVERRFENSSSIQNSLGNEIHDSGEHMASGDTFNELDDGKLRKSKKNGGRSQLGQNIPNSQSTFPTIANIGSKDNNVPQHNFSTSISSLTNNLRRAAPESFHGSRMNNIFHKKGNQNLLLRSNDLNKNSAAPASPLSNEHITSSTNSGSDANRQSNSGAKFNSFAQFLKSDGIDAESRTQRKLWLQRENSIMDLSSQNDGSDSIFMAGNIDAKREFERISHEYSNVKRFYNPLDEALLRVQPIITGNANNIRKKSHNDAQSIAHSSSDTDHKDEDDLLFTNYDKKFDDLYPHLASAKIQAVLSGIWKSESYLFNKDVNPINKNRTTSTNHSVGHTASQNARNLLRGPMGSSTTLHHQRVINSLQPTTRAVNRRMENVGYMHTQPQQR
T1 sequence (P38873 whole entry partner): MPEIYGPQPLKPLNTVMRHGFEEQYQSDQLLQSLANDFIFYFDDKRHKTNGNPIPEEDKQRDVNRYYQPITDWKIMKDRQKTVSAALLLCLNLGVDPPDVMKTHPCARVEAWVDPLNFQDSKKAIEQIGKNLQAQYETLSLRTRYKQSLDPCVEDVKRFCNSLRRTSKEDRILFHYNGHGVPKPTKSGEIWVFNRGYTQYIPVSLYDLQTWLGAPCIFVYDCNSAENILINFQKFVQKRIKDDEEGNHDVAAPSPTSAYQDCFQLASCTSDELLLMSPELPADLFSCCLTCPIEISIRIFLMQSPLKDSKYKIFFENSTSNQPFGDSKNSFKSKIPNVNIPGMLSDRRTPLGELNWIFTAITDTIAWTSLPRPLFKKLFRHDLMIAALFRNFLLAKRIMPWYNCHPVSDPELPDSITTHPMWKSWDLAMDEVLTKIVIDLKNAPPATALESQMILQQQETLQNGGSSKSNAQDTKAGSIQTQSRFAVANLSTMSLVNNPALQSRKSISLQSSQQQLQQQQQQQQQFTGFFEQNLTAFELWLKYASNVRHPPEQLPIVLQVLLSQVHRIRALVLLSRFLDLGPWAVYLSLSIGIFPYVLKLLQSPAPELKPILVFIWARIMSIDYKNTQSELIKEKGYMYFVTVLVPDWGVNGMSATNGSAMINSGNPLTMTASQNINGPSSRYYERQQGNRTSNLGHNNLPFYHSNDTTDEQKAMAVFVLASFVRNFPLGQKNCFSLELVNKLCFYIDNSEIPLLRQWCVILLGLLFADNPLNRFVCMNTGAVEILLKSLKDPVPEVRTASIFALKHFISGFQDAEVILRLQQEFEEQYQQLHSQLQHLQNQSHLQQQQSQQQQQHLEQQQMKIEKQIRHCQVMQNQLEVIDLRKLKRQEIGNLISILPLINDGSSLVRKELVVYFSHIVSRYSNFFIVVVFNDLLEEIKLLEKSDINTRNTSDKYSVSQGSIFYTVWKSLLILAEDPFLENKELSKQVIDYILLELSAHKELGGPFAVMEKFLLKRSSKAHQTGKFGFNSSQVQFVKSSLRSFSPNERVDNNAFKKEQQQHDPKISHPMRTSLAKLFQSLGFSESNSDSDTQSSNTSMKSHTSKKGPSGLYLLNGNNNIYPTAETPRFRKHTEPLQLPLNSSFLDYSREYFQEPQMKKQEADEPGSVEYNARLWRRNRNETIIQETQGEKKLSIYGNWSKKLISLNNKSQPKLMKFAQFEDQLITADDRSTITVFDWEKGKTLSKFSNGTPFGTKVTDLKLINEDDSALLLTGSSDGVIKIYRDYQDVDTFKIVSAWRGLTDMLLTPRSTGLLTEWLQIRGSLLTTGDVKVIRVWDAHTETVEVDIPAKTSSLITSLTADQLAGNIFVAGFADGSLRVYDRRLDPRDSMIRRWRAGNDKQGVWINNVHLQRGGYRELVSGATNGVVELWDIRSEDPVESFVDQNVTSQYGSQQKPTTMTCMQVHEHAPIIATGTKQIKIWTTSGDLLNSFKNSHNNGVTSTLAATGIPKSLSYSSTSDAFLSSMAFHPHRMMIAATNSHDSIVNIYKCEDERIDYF
T1 sequence (P41318 whole entry partner): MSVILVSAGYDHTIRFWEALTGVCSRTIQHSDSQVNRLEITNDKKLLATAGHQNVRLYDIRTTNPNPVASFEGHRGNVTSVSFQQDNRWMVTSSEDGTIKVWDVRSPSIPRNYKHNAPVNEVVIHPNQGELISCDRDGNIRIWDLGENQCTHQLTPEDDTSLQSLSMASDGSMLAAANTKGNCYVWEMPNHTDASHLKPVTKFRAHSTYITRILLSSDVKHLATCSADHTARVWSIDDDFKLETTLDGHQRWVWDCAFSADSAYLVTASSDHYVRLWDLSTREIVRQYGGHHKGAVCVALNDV

Turning to `CO[C@H]1C[C@@H]2CC[C@@H](C)[C@@](O)(O2)C(=O)C(=O)N2CCCC[C@H]2C(=O)O[C@H]([C@H](C)C[C@@H]2CC[C@@H](O)[C@H](OC)C2)CC(=O)[C@H](C)/C=C(\C)[C@@H](O)[C@@H](OC)C(=O)[C@H](C)C[C@H](C)/C=C/C=C/C=C/1C` [rapamycin], the “combined effect of rapamycin and cerulenin on yeast growth” value in assay [1] is reported as “additive effect”.

One may read the Kd as a measure of binding affinity in units of concentration. In the case of “Acc1 purified from yeast (from UniProt Q00955 1-2233) (enzyme)”, the Kd in assay [2] turned out to be 49.1 nM.

Turning to “Acc1: yeast acetyl-CoA carboxylase purified from yeast through TAP-tag immuno-enrichment”, the Kd in assay [3] came out at 49.1 ± 28.3 nM. Moreover, the “Fraction bound transformed (MST, TORC1 target)” value (“Fraction bound transformed” below) in assay [3] (titrated protein 2.44141e-9 M) is 0.1107; in assay [3] (titrated protein 9.76563e-9 M), -0.03249; in assay [3] (titrated protein 1.95313e-8 M) it was 0.3896; in assay [3] (titrated protein 7.8125e-8 M), 0.8094; in assay [3] (titrated protein 3.125e-7 M), 0.5572; in assay [3] (titrated protein 6.25e-7 M), 0.7617. Moreover, the “Fraction bound transformed” value in assay [3] (titrated protein 1.25e-6 M) came to 0.8055; in assay [3] (titrated protein 2.5e-6 M) it was 0.9274; in assay [3] (titrated protein 5e-6 M), 1.054; in assay [3] (titrated protein 1e-5 M) it was 1.011; in assay [3] (titrated protein 2e-5 M), 0.9376; in assay [3] (titrated protein 4e-5 M), 1.262. Moreover, the “Fraction bound transformed” value turned out to be 1.2067 in assay [3] (titrated protein 8e-5 M), 0.03811 in assay [4] (setting [6]), 0.4481 in assay [4] (setting [7]) and 0.735 in assay [4] (setting [8]).

In the case of BSA-C16:0, the “C16:0 (peak area), Mean” value in assay [5] is reported as 531779.

“Fas1 purified from yeast (from UniProt P07149 1-2051) (enzyme)” displayed a Kd in assay [2] of 23.7 nM.

Turning to “Fas1: yeast FA synthase subunit purified from yeast through TAP-tag immuno-enrichment”, in assay [3], the Kd turned out to be 23.7 ± 15.4 nM. The “Fraction bound transformed” value in assay [3] (titrated protein 2.44141e-9 M) is on record as 0.1633; in assay [3] (titrated protein 9.76563e-9 M), 0.4832; in assay [3] (titrated protein 1.95313e-8 M), 0.1917; in assay [3] (titrated protein 7.8125e-8 M), 0.6873; in assay [3] (titrated protein 3.125e-7 M), 0.978; in assay [3] (titrated protein 6.25e-7 M), 1.128. For the same molecule, the “Fraction bound transformed” value worked out at 1.25 in assay [3] (titrated protein 1.25e-6 M); 1.151 in assay [3] (titrated protein 2.5e-6 M); 0.8443 in assay [3] (titrated protein 5e-6 M); 0.9239 in assay [3] (titrated protein 1e-5 M); 0.8697 in assay [3] (titrated protein 2e-5 M); 0.2698 in assay [4] (setting [6]). The “Fraction bound transformed” value is given as 0.7564 in assay [4] (setting [7]); 0.5063 in assay [4] (setting [8]); -0.03697 in assay [4] (titrated protein 1.2207E-09 M, Fig. 6e); -0.1692 in assay [4] (titrated protein 6.1035E-10 M, Fig. 6e).
